3 molecules from paper PMC6804660, “Melatonin enhances salt tolerance by promoting MYB108A-mediated ethylene biosynthesis in grapevines” can be followed below.

The target in series [1] is T1, MYB108A (VviMYB108A) (UniProt C3W4Q3 1-306).
T1 sequence: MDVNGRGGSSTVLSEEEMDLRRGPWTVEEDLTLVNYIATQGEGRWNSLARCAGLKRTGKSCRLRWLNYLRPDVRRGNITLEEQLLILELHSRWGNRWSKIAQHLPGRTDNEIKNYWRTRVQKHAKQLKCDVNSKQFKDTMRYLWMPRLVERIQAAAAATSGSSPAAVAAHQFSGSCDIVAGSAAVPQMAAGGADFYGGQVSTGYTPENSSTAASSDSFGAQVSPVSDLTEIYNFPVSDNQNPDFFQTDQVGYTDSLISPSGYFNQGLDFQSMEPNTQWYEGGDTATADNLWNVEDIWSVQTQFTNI
Briefly: EMSA; EMSA per Thermo Fisher EMSA Kit manual; buffer, salt, pH and temperature not stated. Particulars: protein: recombinant; tags: His; label: biotin.

Series [2] has as its target T1, MYB108A (VviMYB108A). The experiment in a line: competition; increasing unlabeled competitor vs biotin MBS probe (EMSA); EMSA per Thermo Fisher EMSA Kit manual; buffer, salt, pH and temperature not stated. As to conditions: protein: recombinant; tags: His. Background: A gel shift assay detects complexes by their altered migration in electrophoresis.
Series [3] has as its target T1, MYB108A (VviMYB108A). The experiment in a line: competition; unlabeled mutant competitor vs biotin MBS probe (EMSA); EMSA per Thermo Fisher EMSA Kit manual; buffer, salt, pH and temperature not stated. As to conditions: protein: recombinant; tags: His.

B1: ACS1 promoter MBS probe (dsDNA)
DNA 1: CATGTCCCTGTGAACCTAACGTAAGGCA
DNA 2: TGCCTTACGTTAGGTTCACAGGGACATG
On to B1, for which the binding result with MYB108A (VviMYB108A) [1] is “binds”.

B2: unlabeled MBS competitor (dsDNA)
DNA 1: CATGTCCCTGTGAACCTAACGTAAGGCA
DNA 2: TGCCTTACGTTAGGTTCACAGGGACATG
For the molecule B2, the binding result with MYB108A (VviMYB108A) [2] is recorded as “binds”.

B3: mutant MBS competitor (mMBS) (dsDNA)
DNA 1: CATGTCCCTGTGTACATATCGTAAGGCA
DNA 2: TGCCTTACGATATGTACACAGGGACATG
Consider B3, for which the binding result with MYB108A (VviMYB108A) [3] was “no binding”.
